Results reported in patent US20240069033A1, “METHOD FOR SCREENING FOR CANDIDATE MOLECULE CAPABLE OF FORMING COMPLEX IN CONJUNCTION WITH PLURALITY OF TARGET MOLECULES” (Chugai Seiyaku Kabushiki Kaisha, priority 2020, published 2024).
No end group written: not given here. puromycin linker = puromycin spacer joining the C-terminus of the translated peptide to its mRNA (mRNA display); mRNA = not defined here

Experiments:
biotinylated GFP1-9 [1] = experiment: mRNA display pull-down with biotinylated GFP1-9, qPCR
biotinylated GFP1-9 [2] = experiment: mRNA display pull-down with biotinylated GFP1-9, qPCR; corrected with the display efficiency
biotinylated GFP1-9 [3] = experiment: mRNA display pull-down: 0.42 µM Display molecule with 1 µM biotinylated GFP1-9, streptavidin beads, TEV elution, qPCR
[4] = target: anti-ubiquitin antibody (Mouse IgG1 monoclonal antibody; clone name FK2); experiment: mRNA display pull-down on anti-ubiquitin antibody (FK2) magnetic beads, heat elution, qPCR
[5] = target: anti-ubiquitin antibody (Mouse IgG1 monoclonal antibody; clone name FK2); experiment: mRNA display pull-down on anti-ubiquitin antibody (FK2) magnetic beads, qPCR; corrected with the display efficiency
[6] = target: T1, biotinylated splitNanoluc1-8; experiment: mRNA display pull-down with biotinylated splitNanoluc1-8, qPCR; corrected with the display efficiency
T1 chain: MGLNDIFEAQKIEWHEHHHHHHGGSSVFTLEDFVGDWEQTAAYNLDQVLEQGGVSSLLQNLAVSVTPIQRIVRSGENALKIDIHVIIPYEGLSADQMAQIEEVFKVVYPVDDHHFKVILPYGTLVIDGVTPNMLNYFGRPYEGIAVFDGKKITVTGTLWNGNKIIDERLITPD

[7] = target: T1, biotinylated splitNanoluc1-8; experiment: mRNA display pull-down: 33 nM Display molecule with 1 µM biotinylated splitNanoluc1-8, streptavidin beads, TEV elution, qPCR
[8] = target: anti-ubiquitin antibody (Mouse IgG1 monoclonal antibody; clone name FK2); experiment: mRNA display pull-down on anti-ubiquitin antibody (FK2) magnetic beads, qPCR; display molecule at 0.4 µM

With MDLPDDHYLSTQTILLKDLNGSGSGSGSKK (modifications not checked) [GFP10] the fold lower recovery rate than the GFP10-11 fusion peptide (biotinylated GFP1-9 [1]) was 1000 times, the Recovery rate (%) (biotinylated GFP1-9 [2]) was 0.028% and the Apparent recovery rate (%) (biotinylated GFP1-9 [3]) was 0.0237%. It also gave a Recovered nucleic acid amount (molecules) (biotinylated GFP1-9 [3]) of 2.32e+08 molecules.

Work on MMQIFVKTLTGKTATLEVEPSDTIENVKAKIQDKEGIPGSGSGSGSKK-{puromycin linker-mRNA} (reading uncertain; also: mRNA reverse transcribed before assay) [splitUb(N)] yielded an Apparent recovery rate (%) [4] of 0.931%, a Recovered nucleic acid amount (molecules) [4] of 1.63e+10 molecules and a Recovery rate (%) [5] of 1.04%.

For MGSMLFRVTINSGGGSGGGGSGVSGWRLFKKISGSGSGSGSENLYFQGKK (modifications not checked) [splitNanoluc9-10 fusion peptide], the Recovery rate (%) [6] was 33.2%, the Apparent recovery rate (%) [7] was 12.6% and the Recovered nucleic acid amount (molecules) [7] was 3.45e+09 molecules.

B1: Epep-splitUb(N) (protein)
chain: MKVSALENEVSALEKEVSVLEKEVSALEKEVRALEKGSGSGSGSMQIFVKTLTGKTATLEVEPSDTIENVKAKIQDKEGIPGSGSGSGSKK
modifications: C-terminus joined through a puromycin linker to its own mRNA (reverse transcribed before the assay)
With B1 the Apparent recovery rate (%) [8] was 0.0001%, the Recovered nucleic acid amount (molecules) [8] was 377000 molecules and the Recovery rate (%) [5] was 0.0004%.

With MEKRDHMVLLEYVTAAGITDASGSGSGSGSKK (modifications not checked) [GFP11] the fold lower recovery rate than the GFP10-11 fusion peptide (biotinylated GFP1-9 [1]) was 1000 times, the Recovery rate (%) (biotinylated GFP1-9 [2]) was 0.012% and the Apparent recovery rate (%) (biotinylated GFP1-9 [3]) was 0.0109%. The Recovered nucleic acid amount (molecules) (biotinylated GFP1-9 [3]) was 8.95e+07 molecules.
